Results published in US20160251386A1 (published 2016).

Target: the molecule itself
Assay: SDS gel and Western blot, self-association (dimer band)

B1: secreted form of the factor with tags (94 AA+tags) expressed in E. coli (other)
chain: MEPLAVVDLRPQSSVKVEVHFQDKVEEMSIRLDQTVAELKKHLKTVVQLSTSNMLLFYLDQEAPFGPEEMKYSSRALHSYGIRDGDKIYVEPRMKDDDDKKGEFEAYVEQKLISEEDLNSAVDHHHHHH
notes: Expressed from pTrcHis2-TOPO in E. coli, purified on nickel columns; carries no lipid cofactor; runs at 16 kD with a 32 kD dimer band; also called free factor made in E. coli; E. coli expressed secreted form of the factor
Q: Does B1 bind?
A: binds
